Earlier results on one substance are cited in patent US20210333272A1.

The term Kd denotes the equilibrium constant for the complex coming apart.

This series has as its system CD63 fragment. To be noted: CITED BasePair Biotechnologies CD63 aptamer data sheet; cited from earlier work.

As for BasePair CD63 aptamer (ATW0056), the Kd was 17.1 nM.
